Reference: publication PMC405831 (Journal of Insect Science, 2002)

Target: T1, Ecdysteroid receptor (EcR), ligand binding part (C-terminus of D- and E-domain) (UniProt P34021 400-655)
T1 sequence (looked up): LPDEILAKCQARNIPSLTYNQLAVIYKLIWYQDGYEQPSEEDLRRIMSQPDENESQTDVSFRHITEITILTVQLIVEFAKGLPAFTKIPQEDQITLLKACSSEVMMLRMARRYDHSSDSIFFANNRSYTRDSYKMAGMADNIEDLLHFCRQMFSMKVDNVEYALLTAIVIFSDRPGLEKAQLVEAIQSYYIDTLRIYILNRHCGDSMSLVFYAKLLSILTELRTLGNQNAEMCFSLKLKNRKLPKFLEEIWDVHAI
Assay: native gel or EMSA

fold of the affinity constant of heterodimerization against homodimerization: ~10 fold
B1: Ultraspiracle (USP), ligand binding part (C-terminus of D- and E-domain) (domain or fragment, UniProt P20153 230-508, looked up)
chain: MTNSVSRDFSIERIIEAEQRAETQCGDRALTFLRVGPYSTVQPDYKGAVSALCQVVNKQLFQMVEYARMMPHFAQVPLDDQVILLKAAWIELLIANVAWCSIVSLDDGGAGGGGGGLGHDGSFERRSPGLQPQQLFLNQSFSYHRNSAIKAGVSAIFDRILSELSVKMKRLNLDRRELSCLKAIILYNPDIRGIKSRAEIEMCREKVYACLDEHCRLEHPGDDGRFAQLLLRLPALRSISLKCQDHLFLFRITSDRPLEELFLEQLEAPPPPGLAMKLE
